Reference: US20230137139A1, “BIOSYNTHESIS OF CANNABINOIDS AND C[…]” (priority 2020, published 2023)

Experiments:
[1] = test system: CBCVA, THCVA, and CBDVA production; assay: In vivo TS activity assay, Example 2 protein engineering of A. niger CBCAS, cultures fed divaric acid; format: cell-based, S. cerevisiae; settings: for Mean CBCVA / Mean CBDVA / Mean THCVA: S. cerevisiae strains expressing A. niger CBCAS mutants; for Mean CBCVA / Mean CBDVA / Mean THCVA / average CBCVA titer compared with the A. niger positive control: secondary screen; for Mean CBCVA / Mean CBDVA / Mean THCVA / % CBCVA / % CBDVA / % THCVA: fed divaric acid; for % CBCVA / % CBDVA / % THCVA: share of terminal cannabinoid product profile
Procedure: (§1) An assay to detect TS activity was conducted as follows: each thawed glycerol stock of candidate CBCAS transformants was stamped into a well of YEP+4% dextrose media. Samples were incubated at 30° C. in a shaking incubator for 2 days. A portion of each of the resulting cultures was stamped into a well of YEP+4% galactose+1 mM olivetolic acid (FIG. 1 Structure 6a). Samples were incubated at 20° C. and shaken in a shaking incubator for 4 days. Every 24 hours during those 4 days, 2% galactose and 1 mM olivetolic acid were spiked into the cultures. Sodium citrate buffer adjusted to pH 5.5 was added to each well at a final concentration of 100 mM. Samples were incubated at 20° C. and shaken in a shaking incubator for 2 days. A portion of each of the resulting production cultures was stamped into a well of phosphate buffered saline (PBS). Optical measurements were taken on a plate reader, with absorbance measured at 600 nm and fluorescence at 528 nm with 485 nm excitation. Samples were incubated at 30° C. in a shaking incubator for 2 days. 100% methanol was stamped into the production cultures in half-height deepwell plates. Plates were heat sealed and frozen. Samples were then thawed for 30 min and spun down at 4° C. A portion of the supernatant was stamped into half-area 96 well plates. CBCA, THCA, and CBDA production in the samples was quantified via liquid chromatography-mass spectrometry (LC-MS).
(§2) To determine whether engineering of the A. niger CBCAS identified in Example 1 (corresponding to SEQ ID NO: 29 (with signal peptides); SEQ ID NO: 27 (without signal peptides and including an N-terminal methionine (UniProt accession No. A0A254UC34)); or SEQ ID NO: 25 (without signal peptides and without the N-terminal methionine)), could alter CBCAS substrate specificity, product specificity and/or amounts of products produced, point mutations were generated in A. niger CBCAS and the mutant versions of the protein were expressed in S. cerevisiae. A library containing 1047 A. niger CBCAS mutants was generated and screened. As in Example 1, each CBCAS mutant in the library, as well as the enzymes expressed by positive control strains, included an N-terminal MFalpha2 signal peptide (SEQ ID NO: 16) (with a methionine residue added at the N-terminus of the MFalpha2 signal peptide) and a C-terminal HDEL signal peptide (SEQ ID NO: 17).
(§3) Of the original 1047 library members, 55 strains were elevated to a secondary screen to verify CBCA production. The experimental protocol for the secondary screen was identical to the primary screen, except that additional biological replicates were included per strain, and replicate production cultures for each strain were separately fed 1 mM boluses of olivetolic acid or 1 mM boluses of divaric acid. All strains were screened in quadruplicate.

[2] = test system: CBCA, THCA, and CBDA production; assay: In vivo TS activity assay, Example 2 protein engineering of A. niger CBCAS, cultures fed olivetolic acid; format: cell-based, S. cerevisiae; settings: for Mean CBCA / Mean CBDA / Mean THCA: secondary screen, olivetolic acid (Table 8); for % CBCA / % CBDA / % THCA: share of terminal cannabinoid product profile
Procedure: as §1, §2
Production of compounds of Formulae (9), (10), and/or (11), including compounds of Formulae (9a), (10a), and/or (11a) by strains expressing the mutated versions of A. niger CBCAS was quantified and compared to the production of the same compounds by a strain expressing wild-type A. niger CBCAS, a strain expressing a C. sativa THCAS, and a strain expressing a C. sativa CBDAS. The strains were screened using the same assay described in Example 1. Production of CBCA, THCA, and/or CBDA in the samples was quantified via LC-MS.
as §3

B1: t865720 (protein)
chain: MGNTTSIAGRDCLISALGGNSALAVFPNELLWTADVHEYNLNLPVTPAAITYPETAAQIAGVVKCASDYDYKVQARSGGHSFGNYGLGGADGAVVVDMKHFTQFSMDDETYEAVIGPGTTLGDVDKELYNNGKRAMAHGVCPTIKTGGHFTIGGLGPTARQWGLALDHVEEVEVVLANSSIVRASNTQNQDVFFAVKGAAANFGIVTEFKVRTEPAPGLAVQYSYTFNLGSTAEKAQFVKDWQSFISAKNLTRQFYNNMVIFDGDIILEGLFFGSKEQYDALGLEDHFAPKNPGNILVLTDWLGMVGHALEDTILKLVGNTPTWFYAKSLGFRQDTLIPSAGIDEFFEYIANHTAGTPAWFVTLSLEGGAINDVAEDATAYAHRDVLFWVQLFMVNPVGPISDTTYEFTDGLYDVLARAVPESVGHAYLGCPDPRMEDAQQKYWRTNLPRLQELKEELDPKNTFHHPQGVMPA
Mean CBCVA [1]: 4276.65 µg/L | Mean CBDVA [1]: 0.00 µg/L | Mean THCVA [1]: 2090.51 µg/L | average CBCVA titer compared with the A. niger positive control [1]: higher | % CBCVA [1]: 67.17% | % CBDVA [1]: 0.00% | % THCVA [1]: 32.83% | Mean CBCA [2]: 27895.13 µg/L | Mean CBDA [2]: 7663.58 µg/L | Mean THCA [2]: 1543.57 µg/L | % CBCA [2]: 75.18% | % CBDA [2]: 20.66% | % THCA [2]: 4.16%

B2: t865736 (protein)
chain: MGNTTSIAGRDCLISALGGNSALAVFPNELLWTADVHEYNLNLPVTPAAITYPETAAQIAGVVKCASDYDYKVQARSGGHSFGNYGLGGADGAVVVDMKHFTQFSMDDETYEAVIGPGTTLNDVDIELYNNGKRAMAHGVCPTIKTGGHFTIGGLGPTARQWGLALDHVEEVEVVLANSSIVRASNTQNQDVFFAVKGAAANFGIVTEFKVRTEPAPGLAVQYSYTFNLGSTAEKAQFVKDWQSFISAKNLTRQFYNNMVIFDGDIILEGLFFGSKEQYDALGLEDHFAPKNPGSILVLTDWLGMVGHALEDTILKLVGNTPTWFYAKSLGFRQDTLIPSAGIDEFFEYIANHTAGTPAWFVTLSLEGGAINDVAEDATAYAHRDVLFWVQLFMVNPVGPISDTTYEFTDGLYDVLARAVPESVGHAYLGCPDPRMEDAQQKYWRTNLPRLQELKEELDPKNTFHHPQGVMPA
Mean CBCVA [1]: 3847.79 µg/L | Mean CBDVA [1]: 0.00 µg/L | Mean THCVA [1]: 1963.40 µg/L | average CBCVA titer compared with the A. niger positive control [1]: higher | % CBCVA [1]: 66.21% | % CBDVA [1]: 0.00% | % THCVA [1]: 33.79% | Mean CBCA [2]: 24918.92 µg/L | Mean CBDA [2]: 6931.79 µg/L | Mean THCA [2]: 1690.72 µg/L | % CBCA [2]: 74.29% | % CBDA [2]: 20.67% | % THCA [2]: 5.04%

B3: t865751 (protein)
chain: MGNTTSIAGRDCLISALGGNSALAVFPNELLWTADVHEYNLNLPVTPAAITYPETAAQIAGVVKCASDYDYKVQARSGGHSFGNYGLGGADGAVVVDMKHFTQFSMDDETYEAVIGPGTTLNDVDIELYNNGKRAMAHGVCPTIKTGGHFTIGGLGPTARQWGLALDHVEEVEVVLANSSIVRASNTQNQDVFFAVKGAAANFGIVTEFKVRTEPAPGLAVQYSYTFNLGSTAEKAQFVKDWQSFISAKNLTRQFYNNMVIFDGDIILEGLFFGSKEQYDALGLEDHFAPKNPGNILVLTDWLGMVGHALEDTILKLVGNTPTWFYAKSLGFRQDTLIPSAGIDEFFEYIANHTAGTPAWFVTLSLEGGAINDVAEDATAYAHRDVLFWVQLFMVNPVGPISDTTYEFTDGLYDVLARAVPEAVGHAYLGCPDPRMEDAQQKYWRTNLPRLQELKEELDPKNTFHHPQGVMPA
modifications: expressed in S. cerevisiae strain
Mean CBCVA [1]: 3998.68 µg/L | Mean CBDVA [1]: 0.00 µg/L | Mean THCVA [1]: 1894.39 µg/L | average CBCVA titer compared with the A. niger positive control [1]: higher | % CBCVA [1]: 67.85% | % CBDVA [1]: 0.00% | % THCVA [1]: 32.15% | Mean CBCA [2]: 31396.25 µg/L | Mean CBDA [2]: 8775.99 µg/L | Mean THCA [2]: 1709.83 µg/L | % CBCA [2]: 74.96% | % CBDA [2]: 20.95% | % THCA [2]: 4.08%

B4: t865745 (protein)
chain: MGNTTSIAGRDCLISALGGNSALAVFPNELLWTADVHEYNLNLPVTPAAITYPETAAQIAGVIKCASDYDYKVQARSGGHSFGNYGLGGADGAVVVDMKHFTQFSMDDETYEAVIGPGTTLNDVDIELYNNGKRAMAHGVCPTIKTGGHFTIGGLGPTARQWGLALDHVEEVEVVLANSSIVRASNTQNQDVFFAVKGAAANFGIVTEFKVRTEPAPGLAVQYSYTFNLGSTAEKAQFVKDWQSFISAKNLTRQFYNNMVIFDGDIILEGLFFGSKEQYDALGLEDHFAPKNPGNILVLTDWLGMVGHALEDTILKLVGNTPTWFYAKSLGFRQDTLIPSAGIDEFFEYIANHTAGTPAWFVTLSLEGGAINDVAEDATAYAHRDVLFWVQLFMVNPVGPISDTTYEFTDGLYDVLARAVPESVGHAYLGCPDPRMEDAQQKYWRTNLPRLQELKEELDPKNTFHHPQGVMPA
modifications: expressed in S. cerevisiae strain
Mean CBCVA [1]: 7068.26 µg/L | Mean CBDVA [1]: 0.00 µg/L | Mean THCVA [1]: 2991.05 µg/L | average CBCVA titer compared with the A. niger positive control [1]: higher | % CBCVA [1]: 70.27% | % CBDVA [1]: 0.00% | % THCVA [1]: 29.73% | Mean CBCA [2]: 27923.31 µg/L | Mean CBDA [2]: 7360.14 µg/L | Mean THCA [2]: 1963.25 µg/L | % CBCA [2]: 74.97% | % CBDA [2]: 19.76% | % THCA [2]: 5.27%

B5: t865723 (protein)
chain: MGNTTSIAGRDCLISALGGNSALAVFPNELLWTADVHEYNLNLPVTPAAITYPETAAQIAGVVKCASDYDYKVQARSGGHSFGNYGLGGADGAVVVDMKHFTQFSMDDETYEAVIGPGTTLNDVDIELWNNGKRAMAHGVCPTIKTGGHFTIGGLGPTARQWGLALDHVEEVEVVLANSSIVRASNTQNQDVFFAVKGAAANFGIVTEFKVRTEPAPGLAVQYSYTFNLGSTAEKAQFVKDWQSFISAKNLTRQFYNNMVIFDGDIILEGLFFGSKEQYDALGLEDHFAPKNPGNILVLTDWLGMVGHALEDTILKLVGNTPTWFYAKSLGFRQDTLIPSAGIDEFFEYIANHTAGTPAWFVTLSLEGGAINDVAEDATAYAHRDVLFWVQLFMVNPVGPISDTTYEFTDGLYDVLARAVPESVGHAYLGCPDPRMEDAQQKYWRTNLPRLQELKEELDPKNTFHHPQGVMPA
Mean CBCVA [1]: 4223.36 µg/L | Mean CBDVA [1]: 0.00 µg/L | Mean THCVA [1]: 2125.21 µg/L | average CBCVA titer compared with the A. niger positive control [1]: higher | % CBCVA [1]: 66.52% | % CBDVA [1]: 0.00% | % THCVA [1]: 33.48% | Mean CBCA [2]: 22893.08 µg/L | Mean CBDA [2]: 7334.92 µg/L | Mean THCA [2]: 1788.74 µg/L | % CBCA [2]: 71.50% | % CBDA [2]: 22.91% | % THCA [2]: 5.59%

B6: t865748 (protein)
chain: MGNTTSIAGRDCLISALGGNSALAVFPNELLWTADVHEFNLNLPVTPAAITYPETAAQIAGVVKCASDYDYKVQARSGGHSFGNYGLGGADGAVVVDMKHFTQFSMDDETYEAVIGPGTTLNDVDIELYNNGKRAMAHGVCPTIKTGGHFTIGGLGPTARQWGLALDHVEEVEVVLANSSIVRASNTQNQDVFFAVKGAAANFGIVTEFKVRTEPAPGLAVQYSYTFNLGSTAEKAQFVKDWQSFISAKNLTRQFYNNMVIFDGDIILEGLFFGSKEQYDALGLEDHFAPKNPGNILVLTDWLGMVGHALEDTILKLVGNTPTWFYAKSLGFRQDTLIPSAGIDEFFEYIANHTAGTPAWFVTLSLEGGAINDVAEDATAYAHRDVLFWVQLFMVNPVGPISDTTYEFTDGLYDVLARAVPESVGHAYLGCPDPRMEDAQQKYWRTNLPRLQELKEELDPKNTFHHPQGVMPA
modifications: expressed in S. cerevisiae strain
Mean CBCVA [1]: 3759.89 µg/L | Mean CBDVA [1]: 0.00 µg/L | Mean THCVA [1]: 1591.63 µg/L | average CBCVA titer compared with the A. niger positive control [1]: higher | % CBCVA [1]: 70.26% | % CBDVA [1]: 0.00% | % THCVA [1]: 29.74% | Mean CBCA [2]: 21260.42 µg/L | Mean CBDA [2]: 6161.32 µg/L | Mean THCA [2]: 1575.92 µg/L | % CBCA [2]: 73.32% | % CBDA [2]: 21.25% | % THCA [2]: 5.43%
